The source of these data is patent publication US20060286615A1.

The assay addresses monoclonal anti-H2a antibody of hybridoma clone B9 (ECACC 04030801). In words: competitive ELISA, antibody preincubated overnight with free specific peptide, then plate-bound peptide. In general terms: ELISA stands for enzyme-linked immunosorbent assay.

B1: H2 carboxyterminal peptide (SEQ ID NO:1, …) (peptide)
peptide: CEKRRNATGEVA
B1 came in with a % inhibition of the reaction of 81%.
